No end group written: not given here.

Our source for the Kd values is paper PMC2137936, “Molecular Analysis of Thymopentin Binding to HLA-DR Molecules” (PLoS ONE, 2007).

This test addresses human class II major histocompatibility complex DR molecules (HLA-DR) on EBV-transformed B cells (human (endogenous in EBV-transformed B …, UniProt P01903 26-254; P01911 30-266). Description: flow cytometry on cells; 3x10^5 living EBV-transformed B cells incubated with various concentrations of FITC-labeled TP5 in PBS pH 7.4 with 1% BSA, 2 h, 37°C; washed; MFI read; apparent Kd from a double-reciprocal plot of the equilibrium data. The note with it: one partner purified. Background: A flow cytometer gives signals particle by particle.

B1: FITC-labeled thymopentin (TP5) (peptide)
peptide: RKDVY
modifications: also: FITC label, position not given here
notes: thymopentin (TP5), synthetic pentapeptide corresponding to position 32~36 of thymopoietin; also called FITC-labeled TP5; fluorescent-labeled TP5; source: synthetic peptide, conjugated with FITC (Sigma) and purified
Take B1: the Kd was determined as 7.2 µM.
